From PMC6294498, “The structural basis of CstF-77 modulation of cleavage and polyadenylation through stimulation of CstF-64 activity”

Columns and labels:
CstF-64 RRM = molecular target: T1, CstF-64 RRM (Homo sapiens, UniProt P33240 1-107); assay: NMR (1H-15N HSQC titration); 10 mM phosphate pH 6.0, 2 mM TCEP, 30 C; 15N-labeled protein titrated with unlabeled RNA; conditions: protein: recombinant; tags: His6-TEV, removed by TEV; label: none; single strand
T1 sequence: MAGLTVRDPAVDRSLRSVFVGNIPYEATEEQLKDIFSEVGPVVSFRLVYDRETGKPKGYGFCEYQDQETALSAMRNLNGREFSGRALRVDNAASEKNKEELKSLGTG

[1] = molecular target: T2, CstF-64 RRM-Hinge;CstF-77 MT (MT-CTD lacking last 30 aa) (Homo sapiens;Homo sapiens, UniProt P33240;Q12996 1-195;607-687, |del688-717); assay: as above; conditions: protein: recombinant;recombinant, tags: His6-TEV, removed by TEV;MBP-TEV, copies: 1;1, label: none, single strand
T2 sequence 1: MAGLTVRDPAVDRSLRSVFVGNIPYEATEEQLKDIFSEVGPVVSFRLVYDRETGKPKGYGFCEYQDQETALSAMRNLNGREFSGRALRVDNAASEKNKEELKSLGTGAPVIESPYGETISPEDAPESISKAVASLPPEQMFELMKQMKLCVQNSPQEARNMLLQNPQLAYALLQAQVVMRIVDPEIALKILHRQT
T2 sequence 2: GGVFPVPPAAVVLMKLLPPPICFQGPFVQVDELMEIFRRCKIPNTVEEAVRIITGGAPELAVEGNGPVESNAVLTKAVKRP

[2] = molecular target: T3, CstF-64 RRM-Hinge;CstF-77 MT-CTD (Homo sapiens;Homo sapiens, UniProt P33240;Q12996 1-195;607-717, |); assay: NMR (1H-15N HSQC titration); smaller CSPs; last 30 aa of CstF-77 show no significant CSP; 10 mM phosphate pH 6.0, 2 mM TCEP, 30 C; 15N-labeled protein titrated with unlabeled RNA; conditions: protein: recombinant;recombinant, tags: His6-TEV, removed by TEV;MBP-TEV, copies: 1;1, label: none, single strand
T3 sequence 1: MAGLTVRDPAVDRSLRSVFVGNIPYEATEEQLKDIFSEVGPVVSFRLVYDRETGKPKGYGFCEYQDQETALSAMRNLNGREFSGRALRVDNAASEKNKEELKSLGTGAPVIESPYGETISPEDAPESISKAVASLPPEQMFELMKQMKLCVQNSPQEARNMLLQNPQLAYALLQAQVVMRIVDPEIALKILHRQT
T3 sequence 2: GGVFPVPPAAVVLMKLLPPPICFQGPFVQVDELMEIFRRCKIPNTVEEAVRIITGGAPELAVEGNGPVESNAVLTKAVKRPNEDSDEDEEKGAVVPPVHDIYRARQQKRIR

B1: SVL RNA (ssRNA)
RNA: AUUUUAUGUUUCAGGU
- Kd (CstF-64 RRM): 0.7 ± 0.4 µM
- Kd [1]: 3.5 ± 1 µM
- Kd [2]: 3.3 ± 2.3 µM
